Results published in paper PMC10139993.

B1: Fused in sarcoma (FUS) wildtype with N-terminal GFP tag [not stated] / itself (parent)
chain: MASNDYTQQATQSYGAYPTQPGQGYSQQSSQPYGQQSYSGYSQSTDTSGYGQSSYSSYGQSQNTGYGTQSTPQGYGSTGGYGSSQSSQSSYGQQSSYPGYGQQPAPSSTSGSYGSSSQSSSYGQPQSGSYSQQPSYGGQQQSYGQQQSYNPPQGYGQQNQYNSSSGGGGGGGGGGNYGQDQSSMSSGGGSGGGYGNQDQSGGGGSGGYGQQDRGGRGRGGSGGGGGGGGGGYNRSSGGYEPRGRGGGRGGRGGMGGSDRGGFNKFGGPRDQGSRHDSEQDNSDNNTIFVQGLGENVTIESVADYFKQIGIIKTNKKTGQPMINLYTDRETGKLKGEATVSFDDPPSAKAAIDWFDGKEFSGNPIKVSFATRRADFNRGGGNGRGGRGRGGPMGRGGYGGGGSGGGGRGGFPSGGGGGGGQQRAGDWKCPNPTCENMNFSWRNECNQCKAPKPDGPGGGPGGSHMGGNYGDDRRGGRGGYDRGGYRGRGGDRGGFRGGRGGGDRGGFGPGKMDSRGEHRQDRRERPY

Variants of: B1
Assay: SiMPull photobleaching step analysis
Conditions: with itself, read off a plot

Row | Variant | photobleaching steps (0.4M sorbitol 4 hr) [steps] | photobleaching steps (no stress) [steps] | photobleaching steps (without stress) [steps]
1 | chain 1 R244C | 2.1 | 2.1 | 2.1
2 | chain 1 R216C | 2.2 | 2.2 | 2.2
3 | chain 1 G156E | 2 | 1.6 | 1.6
4 | chain 1 G187S | 2.5 | – | –
